The results in this text go back to paper PMC4829898.

Usually stoichiometry N stands for a count of units in the complex or per binding partner.

In this experiment the target is recombinant soluble trimeric hemagglutinin (triHA) (influenza A virus A/Belgium/2009 (H1N1, 2009 pandemic) | Saccharomyces cerevisiae). Description: SEC. (In general: In gel filtration, larger molecules generally elute earlier.)

For the substance “recombinant soluble trimeric hemagglutinin (triHA)”, the stoichiometry N was determined as 3.
